Measured values: patent US20220090209

Experiments:
[1] = target: HIF1β (ARNT), endogenous (Mus musculus) (UniProt P53762); conditions: 5mC at CpG (M.SssI); ChIP-qPCR in isogenic mouse ES cells
HIF1α-HIF1β heterodimer = HIF1α-HIF1β heterodimer (UniProt Q61221+P53762); test: MST; conditions: 5mC at CpG of RCGTG; 20 mM phosphate, 75 mM NaCl, 5 mM DTT, 0.05% Tween-20, pH 7.4, 25 C; scale: fold lower affinity
HIF2α-HIF1β heterodimer = HIF2α-HIF1β heterodimer (UniProt P97481+P53762); test: MST; conditions: 5mC at CpG of RCGTG; 20 mM phosphate, 75 mM NaCl, 5 mM DTT, 0.05% Tween-20, pH 7.4, 25 C; scale: fold lower affinity

Row | Substance | binding signal (fold reduction vs unmethylated) [1] | binding signal (HIF1α-HIF1β heterodimer) | binding signal (HIF2α-HIF1β heterodimer)
1 | in vitro methylated human HIF binding region chr16:30,065,212-30,065,711 | 12.4 |  | 
2 | methylated RCGTG ds oligonucleotide |  | 15 | 15
